Data on two molecules can be found in patent US20130074217A1 (NUTECH VENTURES, published 2013).

For test [1], the target named is T1, EFR-YFPc / EFR-YFPn (Arabidopsis thaliana, UniProt C0LGT6 25-1031).
T1 construct: Two BiFC constructs used in both combinations, expressed in N. benthamiana leaves; not shown: split-YFP half (YFPc or YFPn) from the BiFC vector
T1 sequence (looked up): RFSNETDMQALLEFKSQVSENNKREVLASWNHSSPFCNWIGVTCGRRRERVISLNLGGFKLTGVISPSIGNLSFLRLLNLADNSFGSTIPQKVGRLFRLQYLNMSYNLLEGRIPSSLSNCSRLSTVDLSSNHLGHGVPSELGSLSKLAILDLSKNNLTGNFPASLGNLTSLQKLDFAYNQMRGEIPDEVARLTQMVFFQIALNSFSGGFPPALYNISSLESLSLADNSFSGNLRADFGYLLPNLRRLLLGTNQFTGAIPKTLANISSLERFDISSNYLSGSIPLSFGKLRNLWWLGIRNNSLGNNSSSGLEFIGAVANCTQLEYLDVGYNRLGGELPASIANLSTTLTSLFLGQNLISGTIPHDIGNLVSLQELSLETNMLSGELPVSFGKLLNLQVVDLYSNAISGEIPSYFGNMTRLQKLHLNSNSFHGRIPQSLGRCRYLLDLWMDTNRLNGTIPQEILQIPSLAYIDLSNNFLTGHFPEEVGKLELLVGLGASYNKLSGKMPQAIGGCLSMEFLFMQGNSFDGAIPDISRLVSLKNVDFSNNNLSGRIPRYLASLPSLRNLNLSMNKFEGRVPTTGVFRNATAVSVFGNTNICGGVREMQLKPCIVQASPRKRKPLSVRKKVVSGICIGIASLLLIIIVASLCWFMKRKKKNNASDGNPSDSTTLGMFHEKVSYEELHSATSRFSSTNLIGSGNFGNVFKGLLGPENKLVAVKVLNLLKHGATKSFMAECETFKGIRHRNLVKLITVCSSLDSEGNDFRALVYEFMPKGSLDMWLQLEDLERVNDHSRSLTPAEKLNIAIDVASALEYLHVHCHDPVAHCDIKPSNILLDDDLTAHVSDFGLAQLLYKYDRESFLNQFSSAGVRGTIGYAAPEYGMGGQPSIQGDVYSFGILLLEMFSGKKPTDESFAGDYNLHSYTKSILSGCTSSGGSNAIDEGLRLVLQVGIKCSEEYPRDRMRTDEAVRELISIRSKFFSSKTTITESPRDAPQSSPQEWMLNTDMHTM
The experiment in a line: bimolecular fluorescence complementation in N. benthamiana (panel B).

The target in test [2] is T2, FLS2-YFPc / FLS2-YFPn (Arabidopsis thaliana, UniProt Q9FL28 24-1173).
T2 construct: Two BiFC constructs used in both combinations, expressed in N. benthamiana leaves; not shown: split-YFP half (YFPc or YFPn) from the BiFC vector
T2 sequence (Q9FL28 24-1173): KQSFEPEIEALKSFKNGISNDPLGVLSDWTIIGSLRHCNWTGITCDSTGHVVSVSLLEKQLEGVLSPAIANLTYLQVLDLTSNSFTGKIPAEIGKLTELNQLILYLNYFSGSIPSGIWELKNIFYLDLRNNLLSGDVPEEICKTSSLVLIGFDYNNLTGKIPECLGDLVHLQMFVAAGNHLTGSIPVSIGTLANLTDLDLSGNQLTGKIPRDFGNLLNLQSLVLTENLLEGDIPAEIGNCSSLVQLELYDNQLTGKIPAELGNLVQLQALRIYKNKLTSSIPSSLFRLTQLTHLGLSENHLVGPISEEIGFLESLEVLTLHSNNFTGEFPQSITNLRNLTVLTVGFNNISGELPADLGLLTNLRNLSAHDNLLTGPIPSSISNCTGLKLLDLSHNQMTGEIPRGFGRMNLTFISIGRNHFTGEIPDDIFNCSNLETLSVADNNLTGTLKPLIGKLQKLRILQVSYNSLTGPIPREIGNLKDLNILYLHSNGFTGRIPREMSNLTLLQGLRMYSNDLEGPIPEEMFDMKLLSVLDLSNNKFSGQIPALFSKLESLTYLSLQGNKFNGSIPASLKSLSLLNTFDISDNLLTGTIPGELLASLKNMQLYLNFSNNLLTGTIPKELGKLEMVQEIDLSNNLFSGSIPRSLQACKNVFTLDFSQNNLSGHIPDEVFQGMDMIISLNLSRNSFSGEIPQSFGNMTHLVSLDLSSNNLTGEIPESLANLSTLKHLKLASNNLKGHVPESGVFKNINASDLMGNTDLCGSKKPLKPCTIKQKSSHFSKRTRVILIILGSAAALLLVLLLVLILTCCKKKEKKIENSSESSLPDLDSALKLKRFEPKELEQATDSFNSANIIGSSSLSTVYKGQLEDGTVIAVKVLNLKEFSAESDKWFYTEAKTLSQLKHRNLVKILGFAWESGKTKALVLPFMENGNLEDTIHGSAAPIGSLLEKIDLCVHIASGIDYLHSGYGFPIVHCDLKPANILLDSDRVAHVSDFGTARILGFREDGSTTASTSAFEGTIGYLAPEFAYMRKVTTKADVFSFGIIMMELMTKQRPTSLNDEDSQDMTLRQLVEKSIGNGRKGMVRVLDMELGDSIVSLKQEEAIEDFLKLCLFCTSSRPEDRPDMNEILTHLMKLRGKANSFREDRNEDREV
Put plainly: bimolecular fluorescence complementation in N. benthamiana, with plasmolysis (panel E).

Test [3] has as its target T3, BAK1-HA (Arabidopsis thaliana, UniProt Q94F62 26-615).
T3 construct: Transiently expressed in N. benthamiana; also called LRR-RK BAK1; 35S::BAK1-HA; not shown: HA tag
T3 sequence (looked up): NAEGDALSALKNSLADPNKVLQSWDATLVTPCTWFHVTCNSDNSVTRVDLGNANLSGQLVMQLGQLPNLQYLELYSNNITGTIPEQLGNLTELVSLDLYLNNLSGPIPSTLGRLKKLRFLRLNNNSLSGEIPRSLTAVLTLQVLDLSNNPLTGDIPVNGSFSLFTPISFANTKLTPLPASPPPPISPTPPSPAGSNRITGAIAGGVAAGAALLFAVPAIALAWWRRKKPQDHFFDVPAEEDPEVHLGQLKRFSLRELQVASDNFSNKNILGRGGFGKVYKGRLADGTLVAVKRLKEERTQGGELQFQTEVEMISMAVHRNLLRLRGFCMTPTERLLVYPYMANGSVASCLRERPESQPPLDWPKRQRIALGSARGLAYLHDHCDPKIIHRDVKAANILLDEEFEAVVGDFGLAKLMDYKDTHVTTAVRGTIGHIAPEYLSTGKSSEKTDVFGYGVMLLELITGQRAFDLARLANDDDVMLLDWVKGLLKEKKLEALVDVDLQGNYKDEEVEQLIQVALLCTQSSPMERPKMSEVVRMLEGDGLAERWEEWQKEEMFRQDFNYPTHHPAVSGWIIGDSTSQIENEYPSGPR
Put plainly: co-immunoprecipitation with GFP Trap beads after transient co-expression in N. benthamiana.

B1: GRP7-YFPn / GRP7-YFPc (other)
chain: MASGDVEYRCFVGGLAWATDDRALETAFAQYGDVIDSKIINDRETGRSRGFGFVTFKDEKAMKDAIEGMNGQDLDGRSITVNEAQSRGSGGGGGHRGGGGGGYRSGGGGGYSGGGGSYGGGGGRREGGGGYSGGGGGYSSRGGGGGSYGGGRREGGGGYGGGEGGGYGGSGGGGGW
notes: Two BiFC constructs (N- or C-terminal YFP half) used in both combinations; Results are reported for them together; also called GRP7-YFPn/c; not shown: split-YFP half (YFPn or YFPc) from the pAM-PAT-35S BiFC vector
In the case of B1, the binding result in test [1] and in test [2] was “binds” in each case.

B2: GRP7-eGFP (other)
chain: MASGDVEYRCFVGGLAWATDDRALETAFAQYGDVIDSKIINDRETGRSRGFGFVTFKDEKAMKDAIEGMNGQDLDGRSITVNEAQSRGSGGGGGHRGGGGGGYRSGGGGGYSGGGGSYGGGGGRREGGGGYSGGGGGYSSRGGGGGSYGGGRREGGGGYGGGEGGGYGGSGGGGGW
notes: Transiently expressed in N. benthamiana under the 35S promoter; also called 35S::GRP7-eGFP; not shown: C-terminal enhanced green fluorescent protein (eGFP) tag
As for B2, in test [3], the binding result was “no binding”.
